Source: US20260374857 (published 2026)
Where two headings read alike, the source gives them in different places.

Experiments:
Assay in all cases: ELISA
GnRH Bio-peptide 1 [1] = biological target: T1, GnRH Bio-peptide 1 (not fully specified)
T1 chain: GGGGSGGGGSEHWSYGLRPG

GnRH Bio-peptide 1 [2] = biological target: T1, GnRH Bio-peptide 1
GnRH Bio-peptide 1 [3] = biological target: T1, GnRH Bio-peptide 1
GnRH Bio-peptide 1 [4] = biological target: T1, GnRH Bio-peptide 1
GnRH Bio-peptide 2 = biological target: T2, GnRH Bio-peptide 2 (not fully specified)
T2 chain: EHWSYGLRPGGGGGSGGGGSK

Binder	EC50 (GnRH Bio-peptide 1 [2]) [nM]	EC50 (GnRH Bio-peptide 1 [3]) [nM]	other results
Clone 1 Variant 5 (antibody, V domains shown) VH: QVQLVESGGGLVQAGGSVRLSCTASGRTFNNYVLGWFRQTPGKEREFVAAIRGTGSTTHADSVKGRFTISRDNAKNTVYLQMNSLKPEDTAVYYCAADRTYYPGALRPQYWGQGTQVTVSS			EC50 (GnRH Bio-peptide 1 [1]): 0.94 nM
Clone 9 Ala scanning 11 (antibody, V domains shown) VH: EVQLVESGGGLVQSGGSLGLSCAASGRTFSGYAMGWFRQAPGKEREFVAAIRWSGGSTSYADSVKGRFTISRDNAKNTVYLQMNSLKPEDTAVYYCAADRGPSGSYYYADYWGQGTQVTVSS	375		
Clone 1 Ala scanning 9 (antibody, V domains shown) VH: QVQLVESGGGLVQAGGSVRLSCTASGRTFNNYVLGWFRQTPGKEREFVAAIRGTGSTTHADSVKGRFTISRDNAKNTVYLQMNSLKPEDTAVYYCAADDAYYPGNLAPQYWGQGTQVTVSS		4.2	
Clone 9 Ala scanning 12 (antibody, V domains shown) VH: EVQLVESGGGLVQSGGSLGLSCAASGRTFSGYAMGWFRQAPGKEREFVAAIRWSGGSTSYADSVKGRFTISRDNAKNTVYLQMNSLKPEDTAVYYCAADRGPSGSYYYPAYWGQGTQVTVSS	365		
01Tm1 (antibody, V domains shown) VH: DVQLVESGGGLVQPGGSLRLSCAASGRTFNNYVLGWFRQTPGKEREFVAAIRGTGSTTHADSVKGRFTISRDNAKNTVYLQMNSLKPEDTAVYYCAADDAYYPGNLRPQYWGQGTQVTVSS			EC50 (GnRH Bio-peptide 1 [4]): 0.34 nM; EC50 (GnRH Bio-peptide 2): 0.33 nM
Clone 9 Ala scanning 9 (antibody, V domains shown) VH: EVQLVESGGGLVQSGGSLGLSCAASGRTFSGYAMGWFRQAPGKEREFVAAIRWSGGSTSYADSVKGRFTISRDNAKNTVYLQMNSLKPEDTAVYYCAADRGPSGSYAYPDYWGQGTQVTVSS	56.4		
Clone 1 Variant 3 (antibody, V domains shown) VH: QVQLVESGGGLVQAGGSVRLSCTASGRTFNNYVLGWFRQTPGKEREFVAAIRGTGSTTHADSVKGRFTISRDNAKNTVYLQMNSLKPEDTAVYYCAADDAYYSGNLRPHYWGQGTQVTVSS			EC50 (GnRH Bio-peptide 1 [1]): 1.19 nM
Clone 9 Ala scanning 4 (antibody, V domains shown) VH: EVQLVESGGGLVQSGGSLGLSCAASGRTFSGYAMGWFRQAPGKEREFVAAIRWSGGSTSYADSVKGRFTISRDNAKNTVYLQMNSLKPEDTAVYYCAADRGASGSYYYPDYWGQGTQVTVSS	51.3		
01Tm2 (antibody, V domains shown) VH: DVQLVESGGGLVQPGGSLRLSCAASGRTFQNYVLGWFRQTPGKEREFVAAIRGTGSTTHADSVKGRFTISRDNAKNTVYLQMNSLKPEDTAVYYCAADDAYYPGNLRPQYWGQGTQVTVSS			EC50 (GnRH Bio-peptide 1 [4]): 0.32 nM; EC50 (GnRH Bio-peptide 2): 0.32 nM
Clone 1 Ala scanning 3 (antibody, V domains shown) VH: QVQLVESGGGLVQAGGSVRLSCTASGRTFNNYVLGWFRQTPGKEREFVAAIRGTGSTTHADSVKGRFTISRDNAKNTVYLQMNSLKPEDTAVYYCAADDAAYPGNLRPQYWGQGTQVTVSS		> 1000	
Clone 1 Variant 4 (antibody, V domains shown) VH: QVQLVESGGGLVQAGGSVRLSCTASGRTFNNYVLGWFRQTPGKEREFVAAIRGTGSTTHADSVKGRFTISRDNAKNTVYLQMNSLKPEDTAVYYCAADETYYPGNLRPHYWGQGTQVTVSS			EC50 (GnRH Bio-peptide 1 [1]): 0.96 nM
Clone 1 Ala scanning 2 (antibody, V domains shown) VH: QVQLVESGGGLVQAGGSVRLSCTASGRTFNNYVLGWFRQTPGKEREFVAAIRGTGSTTHADSVKGRFTISRDNAKNTVYLQMNSLKPEDTAVYYCAADAAYYPGNLRPQYWGQGTQVTVSS		19.8	
Clone 9 Ala scanning 5 (antibody, V domains shown) VH: EVQLVESGGGLVQSGGSLGLSCAASGRTFSGYAMGWFRQAPGKEREFVAAIRWSGGSTSYADSVKGRFTISRDNAKNTVYLQMNSLKPEDTAVYYCAADRGPAGSYYYPDYWGQGTQVTVSS	49.5		
Clone 9 Ala scanning 8 (antibody, V domains shown) VH: EVQLVESGGGLVQSGGSLGLSCAASGRTFSGYAMGWFRQAPGKEREFVAAIRWSGGSTSYADSVKGRFTISRDNAKNTVYLQMNSLKPEDTAVYYCAADRGPSGSAYYPDYWGQGTQVTVSS	554		
Clone 9 Ala scanning 10 (antibody, V domains shown) VH: EVQLVESGGGLVQSGGSLGLSCAASGRTFSGYAMGWFRQAPGKEREFVAAIRWSGGSTSYADSVKGRFTISRDNAKNTVYLQMNSLKPEDTAVYYCAADRGPSGSYYAPDYWGQGTQVTVSS	61.2		
01Tm3 (antibody, V domains shown) VH: DVQLVESGGGLVQPGGSLRLSCAASGRTFNAYVLGWFRQTPGKEREFVAAIRGTGSTTHADSVKGRFTISRDNAKNTVYLQMNSLKPEDTAVYYCAADDAYYPGNLRPQYWGQGTQVTVSS			EC50 (GnRH Bio-peptide 1 [4]): 0.4 nM; EC50 (GnRH Bio-peptide 2): 0.33 nM

Binder	EC50 (GnRH Bio-peptide 1 [2]) [nM]	EC50 (GnRH Bio-peptide 1 [3]) [nM]	other results
Clone 1 Ala scanning 4 (antibody, V domains shown) VH: QVQLVESGGGLVQAGGSVRLSCTASGRTFNNYVLGWFRQTPGKEREFVAAIRGTGSTTHADSVKGRFTISRDNAKNTVYLQMNSLKPEDTAVYYCAADDAYAPGNLRPQYWGQGTQVTVSS		152	
Clone 1 Variant 2 (antibody, V domains shown) VH: QVQLVESGGGLVQAGGSVRLSCTASGRTFNNYVLGWFRQTPGKEREFVAAIRGTGSTTHADSVKGRFTISRDNAKNTVYLQMNSLKPEDTAVYYCAADRAYYPGNLRPHYWGQGTQVTVSS			EC50 (GnRH Bio-peptide 1 [1]): 0.5 nM
Clone 1 Ala scanning 11 (antibody, V domains shown) VH: QVQLVESGGGLVQAGGSVRLSCTASGRTFNNYVLGWFRQTPGKEREFVAAIRGTGSTTHADSVKGRFTISRDNAKNTVYLQMNSLKPEDTAVYYCAADDAYYPGNLRPAYWGQGTQVTVSS		11.9	
Clone 1 Ala scanning 1 (antibody, V domains shown) VH: QVQLVESGGGLVQAGGSVRLSCTASGRTFNNYVLGWFRQTPGKEREFVAAIRGTGSTTHADSVKGRFTISRDNAKNTVYLQMNSLKPEDTAVYYCAAADAYYPGNLRPQYWGQGTQVTVSS		509	
Clone 1 Ala scanning 6 (antibody, V domains shown) VH: QVQLVESGGGLVQAGGSVRLSCTASGRTFNNYVLGWFRQTPGKEREFVAAIRGTGSTTHADSVKGRFTISRDNAKNTVYLQMNSLKPEDTAVYYCAADDAYYPANLRPQYWGQGTQVTVSS		26.2	
Clone 9 Ala scanning 3 (antibody, V domains shown) VH: EVQLVESGGGLVQSGGSLGLSCAASGRTFSGYAMGWFRQAPGKEREFVAAIRWSGGSTSYADSVKGRFTISRDNAKNTVYLQMNSLKPEDTAVYYCAADRAPSGSYYYPDYWGQGTQVTVSS	307		
Clone 1 Ala scanning 7 (antibody, V domains shown) VH: QVQLVESGGGLVQAGGSVRLSCTASGRTFNNYVLGWFRQTPGKEREFVAAIRGTGSTTHADSVKGRFTISRDNAKNTVYLQMNSLKPEDTAVYYCAADDAYYPGALRPQYWGQGTQVTVSS		4.3	
Clone 1 Variant 1 (antibody, V domains shown) VH: QVQLVESGGGLVQAGGSVRLSCTASGRTFNNYVLGWFRQTPGKEREFVAAIRGTGSTTHADSVKGRFTISRDNAKNTVYLQMNSLKPEDTAVYYCAADDAYYPGNLRPHYWGQGTQVTVSS			EC50 (GnRH Bio-peptide 1 [1]): 0.39 nM
Clone 9 Ala scanning 7 (antibody, V domains shown) VH: EVQLVESGGGLVQSGGSLGLSCAASGRTFSGYAMGWFRQAPGKEREFVAAIRWSGGSTSYADSVKGRFTISRDNAKNTVYLQMNSLKPEDTAVYYCAADRGPSGAYYYPDYWGQGTQVTVSS	15.6		
Clone 1 Ala scanning 8 (antibody, V domains shown) VH: QVQLVESGGGLVQAGGSVRLSCTASGRTFNNYVLGWFRQTPGKEREFVAAIRGTGSTTHADSVKGRFTISRDNAKNTVYLQMNSLKPEDTAVYYCAADDAYYPGNARPQYWGQGTQVTVSS		4	
01Tm4 (antibody, V domains shown) VH: DVQLVESGGGLVQPGGSLRLSCAASGRTFSNYVLGWFRQTPGKEREFVAAIRGTGSTTHADSVKGRFTISRDNAKNTVYLQMNSLKPEDTAVYYCAADDAYYPGNLRPQYWGQGTQVTVSS			EC50 (GnRH Bio-peptide 1 [4]): 0.32 nM; EC50 (GnRH Bio-peptide 2): 0.32 nM
Clone 1 Ala scanning 10 (antibody, V domains shown) VH: QVQLVESGGGLVQAGGSVRLSCTASGRTFNNYVLGWFRQTPGKEREFVAAIRGTGSTTHADSVKGRFTISRDNAKNTVYLQMNSLKPEDTAVYYCAADDAYYPGNLRAQYWGQGTQVTVSS		65.7	
Clone 9 Ala scanning 6 (antibody, V domains shown) VH: EVQLVESGGGLVQSGGSLGLSCAASGRTFSGYAMGWFRQAPGKEREFVAAIRWSGGSTSYADSVKGRFTISRDNAKNTVYLQMNSLKPEDTAVYYCAADRGPSASYYYPDYWGQGTQVTVSS	524		
Clone 9 Ala scanning 2 (antibody, V domains shown) VH: EVQLVESGGGLVQSGGSLGLSCAASGRTFSGYAMGWFRQAPGKEREFVAAIRWSGGSTSYADSVKGRFTISRDNAKNTVYLQMNSLKPEDTAVYYCAADAGPSGSYYYPDYWGQGTQVTVSS	29.9		
Clone 1 Ala scanning 5 (antibody, V domains shown) VH: QVQLVESGGGLVQAGGSVRLSCTASGRTFNNYVLGWFRQTPGKEREFVAAIRGTGSTTHADSVKGRFTISRDNAKNTVYLQMNSLKPEDTAVYYCAADDAYYAGNLRPQYWGQGTQVTVSS		16.9	
